Experimental data published in publication PMC12749989, “Conformational plasticity across phylogenetic clusters of RND multidrug efflux pumps and its impact on substrate specificity” (Nature Communications, 2025).

Columns and labels:
[1] = target: K. pneumoniae OqxB (Klebsiella pneumoniae); test: crystal structure; detergent-solubilised (DDM) OqxB; sitting drop, 25 °C, 12% PEG4000, 0.2 M MgCl2, 100 mM ADA pH 6.5
[2] = target: K. pneumoniae OqxB (Klebsiella pneumoniae); test: cryo-EM structure; single-particle cryo-EM of AcrB or OqxB reconstituted in detergent-free salipro nanodiscs (saposinA, E. coli total lipids), 20 mM Tris pH 7.5, 150 mM NaCl
[3] = target: the molecule itself; test: cryo-EM structure; single-particle cryo-EM of DDM-solubilised AcrB; trimer composition from the classified monomers
[4] = target: the molecule itself; test: cryo-EM structure; single-particle cryo-EM of AcrB or OqxB reconstituted in detergent-free salipro nanodiscs (saposinA, E. coli total lipids), 20 mM Tris pH 7.5, 150 mM NaCl
[5] = target: the molecule itself; test: crystal structure; DDM-solubilised AcrB variants mixed with DARPins 1:2, excess DARPin removed by SEC (20 mM Tris pH 7.5, 150 mM NaCl, 0.03 % DDM); hanging drop, 18 °C; with 2 mM minocycline or apo

Q: Which results are given for K. pneumoniae OqxB (natural protein)?
A: stoichiometry N [1]: 3; stoichiometry N [2]: 3

B1: E. coli AcrB V612W (natural protein)
chain: MPNFFIDRPIFAWVIAIIIMLAGGLAILKLPVAQYPTIAPPAVTISASYPGADAKTVQDTVTQVIEQNMNGIDNLMYMSSNSDSTGTVQITLTFESGTDADIAQVQVQNKLQLAMPLLPQEVQQQGVSVEKSSSSFLMVVGVINTDGTMTQEDISDYVAANMKDAISRTSGVGDVQLFGSQYAMRIWMNPNELNKFQLTPVDVITAIKAQNAQVAAGQLGGTPPVKGQQLNASIIAQTRLTSTEEFGKILLKVNQDGSRVLLRDVAKIELGGENYDIIAEFNGQPASGLGIKLATGANALDTAAAIRAELAKMEPFFPSGLKIVYPYDTTPFVKISIHEVVKTLVEAIILVFLVMYLFLQNFRATLIPTIAVPVVLLGTFAVLAAFGFSINTLTMFGMVLAIGLLVDDAIVVVENVERVMAEEGLPPKEATRKSMGQIQGALVGIAMVLSAVFVPMAFFGGSTGAIYRQFSITIVSAMALSVLVALILTPALCATMLKPIAKGDHGEGKKGFFGWFNRMFEKSTHHYTDSVGGILRSTGRYLVLYLIIVVGMAYLFVRLPSSFLPDEDQGVFMTMVQLPAGATQERTQKVLNEVTHYYLTKEKNNVESVFAWNGFGFAGRGQNTGIAFVSLKDWADRPGEENKVEAITMRATRAFSQIKDAMVFAFNLPAIVELGTATGFDFELIDQAGLGHEKLTQARNQLLAEAAKHPDMLTSVRPNGLEDTPQFKIDIDQEKAQALGVSINDINTTLGAAWGGSYVNDFIDRGRVKKVYVMSEAKYRMLPDDIGDWYVRAADGQMVPFSAFSSSRWEYGSPRLERYNGLPSMEILGQAAPGKSTGEAMELMEQLASKLPTGVGYDWTGMSYQERLSGNQAPSLYAISLIVVFLCLAALYESWSIPFSVMLVVPLGVIGALLAATFRGLTNDVYFQVGLLTTIGLSAKNAILIVEFAKDLMDKEGKGLIEATLDAVRMRLRPILMTSLAFILGVMPLVISTGAGSGAQNAVGTGVMGGMVTATVLAIFFVPVFFVVVRRRFSRKNEDIEHSHTVDHH
notes: Homotrimer; source: E. coli C43 (DE3) ∆acrB, purified (Ni-NTA, SEC), DDM-solubilised
Q: B1 was tested. Which “stoichiometry N” value [3] did it give?
A: Its value is 3.

B2: E. coli AcrB V612F (natural protein)
chain: MPNFFIDRPIFAWVIAIIIMLAGGLAILKLPVAQYPTIAPPAVTISASYPGADAKTVQDTVTQVIEQNMNGIDNLMYMSSNSDSTGTVQITLTFESGTDADIAQVQVQNKLQLAMPLLPQEVQQQGVSVEKSSSSFLMVVGVINTDGTMTQEDISDYVAANMKDAISRTSGVGDVQLFGSQYAMRIWMNPNELNKFQLTPVDVITAIKAQNAQVAAGQLGGTPPVKGQQLNASIIAQTRLTSTEEFGKILLKVNQDGSRVLLRDVAKIELGGENYDIIAEFNGQPASGLGIKLATGANALDTAAAIRAELAKMEPFFPSGLKIVYPYDTTPFVKISIHEVVKTLVEAIILVFLVMYLFLQNFRATLIPTIAVPVVLLGTFAVLAAFGFSINTLTMFGMVLAIGLLVDDAIVVVENVERVMAEEGLPPKEATRKSMGQIQGALVGIAMVLSAVFVPMAFFGGSTGAIYRQFSITIVSAMALSVLVALILTPALCATMLKPIAKGDHGEGKKGFFGWFNRMFEKSTHHYTDSVGGILRSTGRYLVLYLIIVVGMAYLFVRLPSSFLPDEDQGVFMTMVQLPAGATQERTQKVLNEVTHYYLTKEKNNVESVFAFNGFGFAGRGQNTGIAFVSLKDWADRPGEENKVEAITMRATRAFSQIKDAMVFAFNLPAIVELGTATGFDFELIDQAGLGHEKLTQARNQLLAEAAKHPDMLTSVRPNGLEDTPQFKIDIDQEKAQALGVSINDINTTLGAAWGGSYVNDFIDRGRVKKVYVMSEAKYRMLPDDIGDWYVRAADGQMVPFSAFSSSRWEYGSPRLERYNGLPSMEILGQAAPGKSTGEAMELMEQLASKLPTGVGYDWTGMSYQERLSGNQAPSLYAISLIVVFLCLAALYESWSIPFSVMLVVPLGVIGALLAATFRGLTNDVYFQVGLLTTIGLSAKNAILIVEFAKDLMDKEGKGLIEATLDAVRMRLRPILMTSLAFILGVMPLVISTGAGSGAQNAVGTGVMGGMVTATVLAIFFVPVFFVVVRRRFSRKNEDIEHSHTVDHH
notes: Homotrimer; source: E. coli C43 (DE3) ∆acrB, purified (Ni-NTA, SEC); DDM-solubilised, in cyclohexyl-n-hexyl-β-D-maltoside (apo crystals) or reconstituted in salipro nanodiscs
Q: Which “stoichiometry N” value [4] does the source give for B2 here?
A: Its value is 3.

B3: E. coli AcrB V612N (natural protein)
chain: MPNFFIDRPIFAWVIAIIIMLAGGLAILKLPVAQYPTIAPPAVTISASYPGADAKTVQDTVTQVIEQNMNGIDNLMYMSSNSDSTGTVQITLTFESGTDADIAQVQVQNKLQLAMPLLPQEVQQQGVSVEKSSSSFLMVVGVINTDGTMTQEDISDYVAANMKDAISRTSGVGDVQLFGSQYAMRIWMNPNELNKFQLTPVDVITAIKAQNAQVAAGQLGGTPPVKGQQLNASIIAQTRLTSTEEFGKILLKVNQDGSRVLLRDVAKIELGGENYDIIAEFNGQPASGLGIKLATGANALDTAAAIRAELAKMEPFFPSGLKIVYPYDTTPFVKISIHEVVKTLVEAIILVFLVMYLFLQNFRATLIPTIAVPVVLLGTFAVLAAFGFSINTLTMFGMVLAIGLLVDDAIVVVENVERVMAEEGLPPKEATRKSMGQIQGALVGIAMVLSAVFVPMAFFGGSTGAIYRQFSITIVSAMALSVLVALILTPALCATMLKPIAKGDHGEGKKGFFGWFNRMFEKSTHHYTDSVGGILRSTGRYLVLYLIIVVGMAYLFVRLPSSFLPDEDQGVFMTMVQLPAGATQERTQKVLNEVTHYYLTKEKNNVESVFANNGFGFAGRGQNTGIAFVSLKDWADRPGEENKVEAITMRATRAFSQIKDAMVFAFNLPAIVELGTATGFDFELIDQAGLGHEKLTQARNQLLAEAAKHPDMLTSVRPNGLEDTPQFKIDIDQEKAQALGVSINDINTTLGAAWGGSYVNDFIDRGRVKKVYVMSEAKYRMLPDDIGDWYVRAADGQMVPFSAFSSSRWEYGSPRLERYNGLPSMEILGQAAPGKSTGEAMELMEQLASKLPTGVGYDWTGMSYQERLSGNQAPSLYAISLIVVFLCLAALYESWSIPFSVMLVVPLGVIGALLAATFRGLTNDVYFQVGLLTTIGLSAKNAILIVEFAKDLMDKEGKGLIEATLDAVRMRLRPILMTSLAFILGVMPLVISTGAGSGAQNAVGTGVMGGMVTATVLAIFFVPVFFVVVRRRFSRKNEDIEHSHTVDHH
notes: as for B1
Q: How did the “stoichiometry N” value [5] turn out when B3 was run?
A: The value was 3.
